Reference: US20070004634A1
No end group written: not given here.

Tests used:
[1] = molecular target: IGF-1R on cells (MCF-7, MiaPaCa, FDC-P2 cells expressing human IGF-1R) (human) (UniProt P08069); assay: cell-based or functional assay
[2] = molecular target: His-tagged soluble recombinant human IGF-IR (srhIGF-1R-his) (human), P08069; assay: ALPHAScreen competition against b-hIGF-1 on srhIGF-1R-his
[3] = molecular target: soluble human insulin receptor-immunoglobulin heavy chain chimera (sIR-Fc; Bass et al., 1996) (human) (UniProt P06213); assay: phage ELISA
[4] = molecular target: soluble IGF-1R (recombinant human IGF-1R extracellular domain, R&D Systems Cat. # 391-GR/CF) (human), P08069; assay: phage ELISA
[5] = molecular target: T1, soluble human insulin receptor-immunoglobulin heavy chain chimera (sIR-Fc; Bass et al., 1996) (human), P06213; assay: phage ELISA
T1 chain: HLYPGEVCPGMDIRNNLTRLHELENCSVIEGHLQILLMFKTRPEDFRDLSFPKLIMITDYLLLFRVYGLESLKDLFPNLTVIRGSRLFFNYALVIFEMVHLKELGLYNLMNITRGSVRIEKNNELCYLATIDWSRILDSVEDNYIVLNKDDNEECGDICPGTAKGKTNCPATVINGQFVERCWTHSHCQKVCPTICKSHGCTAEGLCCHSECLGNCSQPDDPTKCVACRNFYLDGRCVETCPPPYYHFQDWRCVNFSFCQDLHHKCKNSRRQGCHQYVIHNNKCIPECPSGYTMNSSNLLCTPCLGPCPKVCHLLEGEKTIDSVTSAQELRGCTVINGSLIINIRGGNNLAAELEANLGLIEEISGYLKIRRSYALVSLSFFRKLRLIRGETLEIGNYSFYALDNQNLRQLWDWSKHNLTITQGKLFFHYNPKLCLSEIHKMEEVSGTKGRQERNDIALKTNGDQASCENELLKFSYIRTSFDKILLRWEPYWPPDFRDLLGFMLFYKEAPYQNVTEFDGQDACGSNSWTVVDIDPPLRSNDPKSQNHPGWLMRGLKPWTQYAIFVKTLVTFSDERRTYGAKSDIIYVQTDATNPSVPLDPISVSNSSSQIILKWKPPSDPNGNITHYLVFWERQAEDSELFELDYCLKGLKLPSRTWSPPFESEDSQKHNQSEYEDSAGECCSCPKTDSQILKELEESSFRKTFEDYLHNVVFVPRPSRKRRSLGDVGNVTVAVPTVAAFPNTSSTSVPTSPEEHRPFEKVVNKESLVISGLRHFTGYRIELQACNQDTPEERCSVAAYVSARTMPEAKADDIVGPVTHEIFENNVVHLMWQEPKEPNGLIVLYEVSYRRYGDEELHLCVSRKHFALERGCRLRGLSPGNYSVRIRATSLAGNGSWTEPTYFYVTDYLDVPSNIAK

B1: G33-lig (peptide, from a related filing)
peptide: GIISQSCPESFYDWFAGQVSDPWWCW
Cellular EC50 (M), FDC-P2 cell proliferation [1]: 3e-06 M | IC50 [2]: 710 nM

B2: 20E2Bβ-4-G6-IR (peptide)
peptide: SQAGSAFYAWFDQVLRTVHSA
IR/IGF-1R ratio comparison [3]: 0.3 | ratio over background [3]: 1.9

B3: lig-D815 (peptide)
chain: WLDQERAWLWCEISGRGCLS
modifications: not checked
IC50 [2]: 2200 nM

B4: B6Hα-2-C4-IR (peptide)
peptide: RCGRWXAEMGAGDDPFYHKLSELVCG
modifications: not fully specified; X: residue not identified in the source; cysteine pairing not given here
IGF-1R/IR ratio comparison [4]: 11 | ratio over background [4]: 9.9 | IR/IGF-1R ratio comparison [5]: 0.1 | ratio over background [5]: 0.9

B5: 20E2B-2-B11-IGFR (peptide)
peptide: VVTPVNFYRALEALVRGXRLG
modifications: not fully specified; printed as VVTPVNFYRALEALVRG.RLG; X: residue not identified in the source
IGF-1R/IR ratio comparison [4]: 9.4 | ratio over background [4]: 10.6 | IR/IGF-1R ratio comparison [5]: 0.1 | ratio over background [5]: 1.1

B6: 20E2B-3-C11-IGFR (peptide)
peptide: CMMXDGFYAGLGCLLTAGEGR
modifications: not fully specified; printed as CMM.DGFYAGLGCLLTAGEGR; X: residue not identified in the source; cysteine pairing not given here
IGF-1R/IR ratio comparison [4]: 7.5 | ratio over background [4]: 15.4 | IR/IGF-1R ratio comparison [5]: 0.1 | ratio over background [5]: 2.1

B7: H2CA-2-B4-IGFR (peptide)
peptide: CCLLCRFQQNFYDWFVCQGISRLRPL
modifications: not checked
IGF-1R/IR ratio comparison [4]: 3.6 | ratio over background [4]: 4.1 | IR/IGF-1R ratio comparison [5]: 0.3 | ratio over background [5]: 1.1
